Substrate: CC/C=C\C[C@@H](/C=C/C=C\CCCCCCCC(=O)O)OO
Experiment: purified protein
Assay type: biochemical, Bombyx mori
Settings: typical assay 50 mM sodium borate pH 9.0, no cofactor, enzyme inactivates during turnover

B1: BmFHD (Bombyx mori fatty acid hydroperoxide dehydratase) (Bombyx mori) (protein)
chain: GGLRTTWGVGLGLGTDFFYEIPRSLEEVKSQGWVLTDKADGLPLPSLALYCSEDRILCGFFDETEYVVGLQVSLPVDEVTDIIFDMPTQGFIIWETEVDGELKKFYSIQQYFINEDTLKQSVEDRLSKWDSSKTLQEKSIWVTGFNGTLLEISTVADDIANGDDFTKQACVPWMGRHYYYKMSAKTECKADTLLPWFPIVESGELIATGFISFLKLSNTYKWFEKPSKAAVQFIVPDGPKCLYDLAEDSGLTTMHIYYVNQPWLVSCLWQ
notes: native, purified from middle silk glands (MSG-A) of fifth instar larvae; 289 aa precursor with predicted 19-residue N-terminal signal peptide; 32 kDa on SDS-PAGE; no tag
Question: Which Km does the source give for B1 here?
Answer: 1.13 µM
